According to patent US10450368 (DUKE UNIVERSITY, dated 2019):

T1: SSB (UniProt P05455 1-408)
T1 sequence: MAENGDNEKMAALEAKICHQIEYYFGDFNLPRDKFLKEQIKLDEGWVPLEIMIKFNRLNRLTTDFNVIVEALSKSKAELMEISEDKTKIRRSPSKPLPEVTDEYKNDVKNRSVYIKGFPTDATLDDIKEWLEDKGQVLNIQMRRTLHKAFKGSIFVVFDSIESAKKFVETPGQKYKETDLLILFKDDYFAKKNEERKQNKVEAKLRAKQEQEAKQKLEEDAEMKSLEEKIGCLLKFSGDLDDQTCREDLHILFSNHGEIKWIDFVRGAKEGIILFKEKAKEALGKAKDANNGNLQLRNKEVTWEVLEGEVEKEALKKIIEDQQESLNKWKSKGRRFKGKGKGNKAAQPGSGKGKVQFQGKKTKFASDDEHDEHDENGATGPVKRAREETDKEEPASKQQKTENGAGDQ

T2: Scl-70 (UniProt P11387 1-765)
T2 sequence: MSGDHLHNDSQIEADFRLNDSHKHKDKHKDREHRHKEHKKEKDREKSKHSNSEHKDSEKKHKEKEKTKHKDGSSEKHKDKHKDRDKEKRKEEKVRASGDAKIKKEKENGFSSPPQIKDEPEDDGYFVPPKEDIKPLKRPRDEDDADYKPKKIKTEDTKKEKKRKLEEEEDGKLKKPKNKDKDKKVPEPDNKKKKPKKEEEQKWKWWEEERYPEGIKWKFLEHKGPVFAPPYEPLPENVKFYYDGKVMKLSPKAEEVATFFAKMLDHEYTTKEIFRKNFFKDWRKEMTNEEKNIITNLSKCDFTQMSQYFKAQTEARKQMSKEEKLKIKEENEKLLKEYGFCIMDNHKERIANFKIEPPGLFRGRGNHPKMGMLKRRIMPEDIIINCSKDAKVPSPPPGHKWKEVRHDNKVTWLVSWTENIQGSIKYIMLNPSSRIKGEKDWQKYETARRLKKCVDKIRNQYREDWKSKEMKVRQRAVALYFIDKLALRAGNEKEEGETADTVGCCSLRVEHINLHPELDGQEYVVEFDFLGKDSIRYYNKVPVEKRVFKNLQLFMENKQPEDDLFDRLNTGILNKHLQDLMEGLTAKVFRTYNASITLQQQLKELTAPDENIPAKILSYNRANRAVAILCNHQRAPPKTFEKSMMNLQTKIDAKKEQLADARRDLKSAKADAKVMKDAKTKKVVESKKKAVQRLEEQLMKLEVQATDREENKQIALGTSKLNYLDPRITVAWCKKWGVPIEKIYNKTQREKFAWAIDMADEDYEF

T3: Centromere B (UniProt P07199 1-599)
T3 construct: also called Cent B
T3 sequence: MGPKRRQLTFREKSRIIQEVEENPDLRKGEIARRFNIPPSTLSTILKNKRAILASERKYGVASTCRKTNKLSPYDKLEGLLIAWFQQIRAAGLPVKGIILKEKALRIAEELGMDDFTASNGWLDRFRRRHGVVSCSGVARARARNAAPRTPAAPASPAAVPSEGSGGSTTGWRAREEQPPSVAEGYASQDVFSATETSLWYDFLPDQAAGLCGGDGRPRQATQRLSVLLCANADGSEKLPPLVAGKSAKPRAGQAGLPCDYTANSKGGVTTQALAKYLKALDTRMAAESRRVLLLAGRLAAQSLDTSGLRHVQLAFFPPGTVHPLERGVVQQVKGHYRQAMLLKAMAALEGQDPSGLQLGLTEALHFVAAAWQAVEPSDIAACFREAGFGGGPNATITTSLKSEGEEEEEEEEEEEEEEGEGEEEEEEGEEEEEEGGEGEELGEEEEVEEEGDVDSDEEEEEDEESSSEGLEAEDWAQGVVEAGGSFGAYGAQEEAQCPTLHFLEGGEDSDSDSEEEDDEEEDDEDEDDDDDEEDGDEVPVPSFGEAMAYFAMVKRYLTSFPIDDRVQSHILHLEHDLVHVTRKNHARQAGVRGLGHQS

T4: Jo-1 (UniProt P12081 1-509)
T4 sequence: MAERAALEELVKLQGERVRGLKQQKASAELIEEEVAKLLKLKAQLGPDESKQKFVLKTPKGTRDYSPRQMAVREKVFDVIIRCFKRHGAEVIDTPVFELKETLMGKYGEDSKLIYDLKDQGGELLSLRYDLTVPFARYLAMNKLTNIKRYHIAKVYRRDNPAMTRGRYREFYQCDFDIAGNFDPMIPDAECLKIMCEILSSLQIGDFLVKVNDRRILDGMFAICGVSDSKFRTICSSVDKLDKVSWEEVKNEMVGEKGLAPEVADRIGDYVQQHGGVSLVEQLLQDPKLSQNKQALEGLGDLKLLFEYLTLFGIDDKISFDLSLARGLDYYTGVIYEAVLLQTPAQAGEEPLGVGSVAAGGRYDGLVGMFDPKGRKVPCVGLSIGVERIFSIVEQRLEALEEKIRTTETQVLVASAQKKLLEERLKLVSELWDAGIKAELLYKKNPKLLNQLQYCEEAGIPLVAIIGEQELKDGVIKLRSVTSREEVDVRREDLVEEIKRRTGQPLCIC

B1: CH493 (antibody, V domains shown)
VH: QVRLLQYGGGVKRPGASMTISCVASGYNFNDYYIHWVRQAPGQGLELMGWIDPSGGRTDYAGAFGDRVSMYRDKSMNTLYMDLRSLRSGDTAMYYCVRNVGTAGSLLHYDHWGLGVMVTVSS
VL: EIVLTQSPATLSVSPGERVTLSCRASQSVRNNLAWYRQKRGQAPRLLIYGASTRATGIPARFSGSGSGTEFTLTISSMQSEDFAVYYCQQYNNWWTFGQGTKVEIK
notes: also called CH235.9; DH493
B2: CH557 (antibody, V domains shown)
VH: QVRLAQYGGGVKRLGATMTLSCVASGYTFNDYYIHWVRQAPGQGFELLGYIDPANGRPDYAGALRERLSFYRDKSMETLYMDLRSLRYDDTAMYYCVRNVGTAGSLLHYDHWGSGSPVIVSS
VL: EIVLTQSPATLSASPGERVTLTCRASRSVRNNVAWYQHKGGQSPRLLIYDASTRAAGVPARFSGSASGTEFTLAISNLESEDFTVYFCLQYNNWWTFGQGTRVDIK
notes: also called CH235.12; CH557_4A/293i

Legend:
SSB [1] = target: T1, SSB; assay: AtheNA, Ab 50 ug/ml
Excerpt: (§1) AtheNA Multi-Lyte ANA Plus Test System is one such assay. This is luminex-based assay, which is also used to screen patient sera.

SSA [2] = target: T5, SSA; assay: AtheNA, Ab 50 ug/ml
T5 construct: also called SSA (Ro)
Excerpt: as §1

Scl-70 [3] = target: T2, Scl-70; assay: AtheNA, Ab 50 ug/ml
Excerpt: as §1

Histones [4] = target: T6, Histones; assay: AtheNA, Ab 50 ug/ml
T6 construct: Mixture of proteins
Excerpt: as §1

RNP (ribonucleoprotein) [5] = target: T7, RNP (ribonucleoprotein); assay: AtheNA, Ab 50 ug/ml
T7 construct: Protein-RNA complex
Excerpt: as §1

Sm (Smith antigen) [6] = target: T8, Sm (Smith antigen); assay: AtheNA, Ab 50 ug/ml
T8 construct: Protein complex
Excerpt: as §1

Centromere B = target: T3, Centromere B; assay: AtheNA, Ab 25 ug/ml
SSB [7] = target: T1, SSB; assay: AtheNA, Ab 25 ug/ml
SSA [8] = target: T5, SSA; assay: AtheNA, Ab 25 ug/ml
Scl-70 [9] = target: T2, Scl-70; assay: AtheNA, Ab 25 ug/ml
Jo-1 = target: T4, Jo-1; assay: AtheNA, Ab 25 ug/ml
Histones [10] = target: T6, Histones; assay: AtheNA, Ab 25 ug/ml
RNP (ribonucleoprotein) [11] = target: T7, RNP (ribonucleoprotein); assay: AtheNA, Ab 25 ug/ml
Sm (Smith antigen) [12] = target: T8, Sm (Smith antigen); assay: AtheNA, Ab 25 ug/ml

Row | Binder | AtheNA signal (SSB [1]) | AtheNA signal (SSA [2]) | AtheNA signal (Scl-70 [3]) | AtheNA signal (Histones [4]) | AtheNA signal (RNP (ribonucleoprotein) [5]) | AtheNA signal (Sm (Smith antigen) [6]) | AtheNA signal (Centromere B) | AtheNA signal (SSB [7]) | AtheNA signal (SSA [8]) | AtheNA signal (Scl-70 [9]) | AtheNA signal (Jo-1) | AtheNA signal (Histones [10]) | AtheNA signal (RNP (ribonucleoprotein) [11]) | AtheNA signal (Sm (Smith antigen) [12])
1 | B1 | 70 | 155 | 36 | 166 | 69 | 37 |  |  |  |  |  |  |  | 
2 | B2 |  |  |  |  |  |  | 25 relative luminescence units | 12 relative luminescence units | 4 relative luminescence units | 4 relative luminescence units | 2 relative luminescence units | 8 relative luminescence units | 6 relative luminescence units | 6 relative luminescence units
